Results: patent US20250270315A1

Experiments:
[1] = molecular target: human SIRPα v2 expressed on cells (CHOK1 stable line KYinno KC-1720) (human) (UniProt P78324); experiment: FACS, CHOK1-hSIRPα v2 cells
[2] = molecular target: cyno SIRPα stably expressed on CHOK1 cells (cyno); experiment: FACS, CHOK1-Cyno SIRPα cells
[3] = molecular target: T1, C57BL/6 mouse SIRPα ECD recombinant protein (6×His tagged) (C57BL/6 mouse) (UniProt P97797); experiment: ELISA, C57BL/6 mouse SIRPα ECD
T1 sequence (looked up): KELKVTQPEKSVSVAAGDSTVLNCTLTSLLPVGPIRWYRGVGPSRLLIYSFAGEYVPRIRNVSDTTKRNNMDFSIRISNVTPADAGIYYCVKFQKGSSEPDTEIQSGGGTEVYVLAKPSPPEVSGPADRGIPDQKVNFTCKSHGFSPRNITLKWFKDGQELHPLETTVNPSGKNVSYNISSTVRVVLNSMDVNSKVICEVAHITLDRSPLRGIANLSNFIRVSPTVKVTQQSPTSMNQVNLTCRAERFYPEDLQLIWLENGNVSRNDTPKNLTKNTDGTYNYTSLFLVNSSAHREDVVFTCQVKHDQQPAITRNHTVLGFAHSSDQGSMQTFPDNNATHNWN

[4] = molecular target: human SIRPα v2 expressed on cells (CHOK1 stable line KYinno KC-1720) (human) (UniProt P78324); experiment: competitive FACS, mFc-CD47 ECD on CHOK1-human SIRPα v2 cells

- EC50 [1]: 850 pM
- TOP MFI [1]: 18700 MFI
- EC50 [2]: 720 pM
- TOP MFI [2]: 14900 MFI
- OD450 at 100 nM [3]: 0.23 OD450
- IC50 [4]: 5610 pM
- TOP blocking (%) [4]: 98.7%
B1: hu1H9G4 (antibody, V domains shown)
VH: QVQLVQSGAEVKKPGASVKVSCKASGYTFTSYWITWVKQAPGQGLEWIGDIYPGSGSTNHIEKFKSKATLTVDTSISTAYMELSRLRSDDTAVYYCATGYGSSYGYFDYWGQGTLVTVSS
VL: DIQMTQSPSSLSASVGDRVTITCRASENIYSYLAWYQQKPGKAPKLLIYTAKTLAEGVPSRFSGSGSGTDFTLTISSLQPEDFATYYCQHQYGPPFTFGQGTKLELK
